From patent publication US20250250314A1 (XILIO DEVELOPMENT, published 2025)

Molecular target: PD-1 from the PD-1 effector cells (UniProt Q15116 25-288, limits assumed)
Test: cell-based or functional assay

Sequence of PD-1 from the PD-1 effector cells (Q15116 25-288 limits assumed): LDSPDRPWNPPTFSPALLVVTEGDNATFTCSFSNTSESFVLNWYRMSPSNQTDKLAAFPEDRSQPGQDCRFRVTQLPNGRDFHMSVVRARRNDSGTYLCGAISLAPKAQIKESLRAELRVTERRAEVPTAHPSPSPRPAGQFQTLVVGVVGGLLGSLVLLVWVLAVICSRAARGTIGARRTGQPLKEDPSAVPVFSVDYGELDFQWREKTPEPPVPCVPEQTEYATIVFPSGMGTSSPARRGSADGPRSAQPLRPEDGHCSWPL

EC50 (nM), fold induction of luminescence in the PD-1/PD-L1 Blockade Bioassay | Binder
1.36 nM | UCM7 (other) heavy 1: QVQLVQSGVEVKKPGASVKVSCKASGYTFTNYYMYWVRQAPGQGLEWMGGINPSNGGTNFNEKFKNRVTLTTDSSTTTAYMELKSLQFDDTAVYYCARRDYRFDMGFDYWGQGTTVTVSSASTKGPSVFPLAPSSKSTSGGTAALGCLVKDYFPEPVTVSWNSGALTSGVHTFPAVLQSSGLYSLSSVVTVPSSSLGTQTYICNVNHKPSNTKVDKKVEPKSCDKTHTCPPCPAPELLGGPSVFLFPPKPKDTLMISRTPEVTCVVVDVSHEDPEVKFNWYVDGVEVHNAKTKPREEQYASTYRVVSVLTVLHQDWLNGKEYKCKVSNKALPAPIEKTISKAKGQPREPQVYTLPPCRDELTKNQVSLWCLVKGFYPSDIAVEWESNGQPENNYKTTPPVLDSDGSFFLYSKLTVDKSRWQQGNVFSCSVMHEALHNRFTQKSLSLSPGGGSSPPGGGSSGGGSGPAPTSSSTKKTQLQLEHLLLDLQMILNGINNYKNPKLTAMLTAKFAMPKKATELKHLQCLEEALKPLEEVLNLAQSKNFHLRPRDLISNINVIVLELKGSETTFMCEYADETATIVEFLNRWITFAQSIISTLT heavy 2: QVQLVQSGVEVKKPGASVKVSCKASGYTFTNYYMYWVRQAPGQGLEWMGGINPSNGGTNFNEKFKNRVTLTTDSSTTTAYMELKSLQFDDTAVYYCARRDYRFDMGFDYWGQGTTVTVSSASTKGPSVFPLAPSSKSTSGGTAALGCLVKDYFPEPVTVSWNSGALTSGVHTFPAVLQSSGLYSLSSVVTVPSSSLGTQTYICNVNHKPSNTKVDKKVEPKSCDKTHTCPPCPAPELLGGPSVFLFPPKPKDTLMISRTPEVTCVVVDVSHEDPEVKFNWYVDGVEVHNAKTKPREEQYASTYRVVSVLTVLHQDWLNGKEYKCKVSNKALPAPIEKTISKAKGQPREPQVCTLPPSRDELTKNQVSLSCAVKGFYPSDIAVEWESNGQPENNYKTTPPVLDSDGSFFLVSKLTVDKSRWQQGNVFSCSVMHEALHNHYTQKSLGGPLGLGGSSGSGGSGGGSGSGGGEVQLVESGGGLVQPGGSLRLSCAASGSIFSINVMGWYRQAPGKQRELVAAISSGGSTNYADSVKGRFTISRDNAKNTVYLQMNSLKPEDTAVYYCMYASSWYEDETDYWGQGTQVTVSS light: EIVLTQSPATLSLSPGERATLSCRASKGVSTSGYSYLHWYQQKPGQAPRLLIYLASYLESGVPARFSGSGSGTDFTLTISSLEPEDFAVYYCQHSRDLPLTFGGGTKVEIKRTVAAPSVFIFPPSDEQLKSGTASVVCLLNNFYPREAKVQWKVDNALQSGNSQESVTEQDSKDSTYSLSSTLTLSKADYEKHKVYACEVTHQGLSSPVTKSFNRGEC
0.84 nM | UCM2 (other) heavy 1: QVQLVQSGVEVKKPGASVKVSCKASGYTFTNYYMYWVRQAPGQGLEWMGGINPSNGGTNFNEKFKNRVTLTTDSSTTTAYMELKSLQFDDTAVYYCARRDYRFDMGFDYWGQGTTVTVSSASTKGPSVFPLAPSSKSTSGGTAALGCLVKDYFPEPVTVSWNSGALTSGVHTFPAVLQSSGLYSLSSVVTVPSSSLGTQTYICNVNHKPSNTKVDKKVEPKSCDKTHTCPPCPAPELLGGPSVFLFPPKPKDTLMISRTPEVTCVVVDVSHEDPEVKFNWYVDGVEVHNAKTKPREEQYASTYRVVSVLTVLHQDWLNGKEYKCKVSNKALPAPIEKTISKAKGQPREPQVYTLPPCRDELTKNQVSLWCLVKGFYPSDIAVEWESNGQPENNYKTTPPVLDSDGSFFLYSKLTVDKSRWQQGNVFSCSVMHEALHNRFTQKSLSLSPGGGSSPPGGGSSGGGSGPAPTSSSTKKTQLQLEHLLLDLQMILNGINNYKNPKLTAMLTAKFAMPKKATELKHLQCLEEALKPLEEVLNLAQSKNFHLRPRDLISNINVIVLELKGSETTFMCEYADETATIVEFLNRWITFAQSIISTLT heavy 2: QVQLVQSGVEVKKPGASVKVSCKASGYTFTNYYMYWVRQAPGQGLEWMGGINPSNGGTNFNEKFKNRVTLTTDSSTTTAYMELKSLQFDDTAVYYCARRDYRFDMGFDYWGQGTTVTVSSASTKGPSVFPLAPSSKSTSGGTAALGCLVKDYFPEPVTVSWNSGALTSGVHTFPAVLQSSGLYSLSSVVTVPSSSLGTQTYICNVNHKPSNTKVDKKVEPKSCDKTHTCPPCPAPELLGGPSVFLFPPKPKDTLMISRTPEVTCVVVDVSHEDPEVKFNWYVDGVEVHNAKTKPREEQYASTYRVVSVLTVLHQDWLNGKEYKCKVSNKALPAPIEKTISKAKGQPREPQVCTLPPSRDELTKNQVSLSCAVKGFYPSDIAVEWESNGQPENNYKTTPPVLDSDGSFFLVSKLTVDKSRWQQGNVFSCSVMHEALHNHYTQKSLSLPLGLGGSSGSGGSGGGSGSGGGEVQLVESGGGLVQPGGSLRLSCAASGSIFSINVMGWYRQAPGKQRELVAAISSGGSTNYADSVKGRFTISRDNAKNTVYLQMNSLKPEDTAVYYCMYASSWYEDETDYWGQGTQVTVSS light: EIVLTQSPATLSLSPGERATLSCRASKGVSTSGYSYLHWYQQKPGQAPRLLIYLASYLESGVPARFSGSGSGTDFTLTISSLEPEDFAVYYCQHSRDLPLTFGGGTKVEIKRTVAAPSVFIFPPSDEQLKSGTASVVCLLNNFYPREAKVQWKVDNALQSGNSQESVTEQDSKDSTYSLSSTLTLSKADYEKHKVYACEVTHQGLSSPVTKSFNRGEC
1.28 nM | UCM4 (other) heavy 1: QVQLVQSGVEVKKPGASVKVSCKASGYTFTNYYMYWVRQAPGQGLEWMGGINPSNGGTNFNEKFKNRVTLTTDSSTTTAYMELKSLQFDDTAVYYCARRDYRFDMGFDYWGQGTTVTVSSASTKGPSVFPLAPSSKSTSGGTAALGCLVKDYFPEPVTVSWNSGALTSGVHTFPAVLQSSGLYSLSSVVTVPSSSLGTQTYICNVNHKPSNTKVDKKVEPKSCDKTHTCPPCPAPELLGGPSVFLFPPKPKDTLMISRTPEVTCVVVDVSHEDPEVKFNWYVDGVEVHNAKTKPREEQYASTYRVVSVLTVLHQDWLNGKEYKCKVSNKALPAPIEKTISKAKGQPREPQVYTLPPCRDELTKNQVSLWCLVKGFYPSDIAVEWESNGQPENNYKTTPPVLDSDGSFFLYSKLTVDKSRWQQGNVFSCSVMHEALHNRFTQKSLSLSPGGGSSPPGGGSSGGGSGPAPTSSSTKKTQLQLEHLLLDLQMILNGINNYKNPKLTAMLTAKFAMPKKATELKHLQCLEEALKPLEEVLNLAQSKNFHLRPRDLISNINVIVLELKGSETTFMCEYADETATIVEFLNRWITFAQSIISTLT heavy 2: QVQLVQSGVEVKKPGASVKVSCKASGYTFTNYYMYWVRQAPGQGLEWMGGINPSNGGTNFNEKFKNRVTLTTDSSTTTAYMELKSLQFDDTAVYYCARRDYRFDMGFDYWGQGTTVTVSSASTKGPSVFPLAPSSKSTSGGTAALGCLVKDYFPEPVTVSWNSGALTSGVHTFPAVLQSSGLYSLSSVVTVPSSSLGTQTYICNVNHKPSNTKVDKKVEPKSCDKTHTCPPCPAPELLGGPSVFLFPPKPKDTLMISRTPEVTCVVVDVSHEDPEVKFNWYVDGVEVHNAKTKPREEQYASTYRVVSVLTVLHQDWLNGKEYKCKVSNKALPAPIEKTISKAKGQPREPQVCTLPPSRDELTKNQVSLSCAVKGFYPSDIAVEWESNGQPENNYKTTPPVLDSDGSFFLVSKLTVDKSRWQQGNVFSCSVMHEALHNHYTQKMPYDLYHPGGSSGSGGSGGGSGSGGGEVQLVESGGGLVQPGGSLRLSCAASGSIFSINVMGWYRQAPGKQRELVAAISSGGSTNYADSVKGRFTISRDNAKNTVYLQMNSLKPEDTAVYYCMYASSWYEDETDYWGQGTQVTVSS light: EIVLTQSPATLSLSPGERATLSCRASKGVSTSGYSYLHWYQQKPGQAPRLLIYLASYLESGVPARFSGSGSGTDFTLTISSLEPEDFAVYYCQHSRDLPLTFGGGTKVEIKRTVAAPSVFIFPPSDEQLKSGTASVVCLLNNFYPREAKVQWKVDNALQSGNSQESVTEQDSKDSTYSLSSTLTLSKADYEKHKVYACEVTHQGLSSPVTKSFNRGEC
1.09 nM | UCM8 (other) heavy 1: QVQLVQSGVEVKKPGASVKVSCKASGYTFTNYYMYWVRQAPGQGLEWMGGINPSNGGTNFNEKFKNRVTLTTDSSTTTAYMELKSLQFDDTAVYYCARRDYRFDMGFDYWGQGTTVTVSSASTKGPSVFPLAPSSKSTSGGTAALGCLVKDYFPEPVTVSWNSGALTSGVHTFPAVLQSSGLYSLSSVVTVPSSSLGTQTYICNVNHKPSNTKVDKKVEPKSCDKTHTCPPCPAPELLGGPSVFLFPPKPKDTLMISRTPEVTCVVVDVSHEDPEVKFNWYVDGVEVHNAKTKPREEQYASTYRVVSVLTVLHQDWLNGKEYKCKVSNKALPAPIEKTISKAKGQPREPQVYTLPPCRDELTKNQVSLWCLVKGFYPSDIAVEWESNGQPENNYKTTPPVLDSDGSFFLYSKLTVDKSRWQQGNVFSCSVMHEALHNRFTQKSLSLSPGGGSSPPGGGSSGGGSGPAPTSSSTKKTQLQLEHLLLDLQMILNGINNYKNPKLTAMLTAKFAMPKKATELKHLQCLEEALKPLEEVLNLAQSKNFHLRPRDLISNINVIVLELKGSETTFMCEYADETATIVEFLNRWITFAQSIISTLT heavy 2: QVQLVQSGVEVKKPGASVKVSCKASGYTFTNYYMYWVRQAPGQGLEWMGGINPSNGGTNFNEKFKNRVTLTTDSSTTTAYMELKSLQFDDTAVYYCARRDYRFDMGFDYWGQGTTVTVSSASTKGPSVFPLAPSSKSTSGGTAALGCLVKDYFPEPVTVSWNSGALTSGVHTFPAVLQSSGLYSLSSVVTVPSSSLGTQTYICNVNHKPSNTKVDKKVEPKSCDKTHTCPPCPAPELLGGPSVFLFPPKPKDTLMISRTPEVTCVVVDVSHEDPEVKFNWYVDGVEVHNAKTKPREEQYASTYRVVSVLTVLHQDWLNGKEYKCKVSNKALPAPIEKTISKAKGQPREPQVCTLPPSRDELTKNQVSLSCAVKGFYPSDIAVEWESNGQPENNYKTTPPVLDSDGSFFLVSKLTVDKSRWQQGNVFSCSVMHEALHNHYTQKSLSLPLGLGGSSGSGGSGGGSGSGGGSGGSGGEVQLVESGGGLVQPGGSLRLSCAASGSIFSINVMGWYRQAPGKQRELVAAISSGGSTNYADSVKGRFTISRDNAKNTVYLQMNSLKPEDTAVYYCMYASSWYEDETDYWGQGTQVTVSS light: EIVLTQSPATLSLSPGERATLSCRASKGVSTSGYSYLHWYQQKPGQAPRLLIYLASYLESGVPARFSGSGSGTDFTLTISSLEPEDFAVYYCQHSRDLPLTFGGGTKVEIKRTVAAPSVFIFPPSDEQLKSGTASVVCLLNNFYPREAKVQWKVDNALQSGNSQESVTEQDSKDSTYSLSSTLTLSKADYEKHKVYACEVTHQGLSSPVTKSFNRGEC
